Patent US20150079657

How the values were obtained:
Test in all cases: cell_activity
[1] = system: ZF(Oct4+286)-p300 (Artificial Sequence); conditions: OCT4 mRNA in HEK293; at least 20-fold in K562; H3K27ac increased
[2] = system: ZF(Oct4+420)-p300 (Artificial Sequence); conditions: OCT4 mRNA in HEK293; at least 20-fold in K562; H3K27ac increased
[3] = system: ZF(Sox2+185)-p300 (Artificial Sequence); conditions: SOX2 mRNA in HEK293; nearly 2-fold or greater in K562
[4] = system: ZF(Sox2+r475)-p300 (Artificial Sequence); conditions: SOX2 mRNA in HEK293; nearly 2-fold or greater in K562
Chain of ZF(Sox2+r475)-p300 (Artificial Sequence) (chain, as listed by the source): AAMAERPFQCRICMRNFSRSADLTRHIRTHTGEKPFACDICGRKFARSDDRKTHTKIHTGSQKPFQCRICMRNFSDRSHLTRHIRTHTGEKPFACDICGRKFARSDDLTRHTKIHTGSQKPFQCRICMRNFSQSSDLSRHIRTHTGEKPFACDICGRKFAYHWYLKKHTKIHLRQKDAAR

Chain of ZF(Oct4+420)-p300 (Artificial Sequence) (chain, as listed by the source): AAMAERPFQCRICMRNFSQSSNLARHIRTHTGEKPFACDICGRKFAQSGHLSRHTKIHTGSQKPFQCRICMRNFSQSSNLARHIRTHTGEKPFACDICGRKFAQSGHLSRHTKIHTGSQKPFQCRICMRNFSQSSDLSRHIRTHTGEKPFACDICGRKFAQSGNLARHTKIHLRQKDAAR
Chain of ZF(Oct4+286)-p300 (Artificial Sequence) (chain, as listed by the source): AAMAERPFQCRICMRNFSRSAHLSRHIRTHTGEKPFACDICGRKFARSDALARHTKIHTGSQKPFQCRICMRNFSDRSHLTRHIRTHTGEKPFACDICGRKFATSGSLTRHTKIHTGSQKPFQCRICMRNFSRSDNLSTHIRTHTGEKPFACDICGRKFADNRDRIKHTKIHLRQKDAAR
Chain of ZF(Sox2+185)-p300 (Artificial Sequence) (chain, as listed by the source): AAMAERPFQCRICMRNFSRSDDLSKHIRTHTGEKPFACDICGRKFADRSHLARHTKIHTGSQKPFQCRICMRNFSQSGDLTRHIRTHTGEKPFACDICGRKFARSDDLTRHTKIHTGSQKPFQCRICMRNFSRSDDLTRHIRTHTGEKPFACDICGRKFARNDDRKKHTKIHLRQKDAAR

Work on OCT4 +286 target site yielded an activity [1] of over 90 fold.

OCT4 +420 target site gave an activity [2] of over 90 fold.

Substance SOX2 +185 target site has an activity [3] of over 1.5 fold.

SOX2 +r475 target site (reverse strand) showed an activity [4] of over 1.5 fold.
